Like-named read-outs stand apart in the source and are kept apart here.
Legend:
[1] = biological target: Recombinant MEK1 (immobilised in SPR) (human) (UniProt Q02750); experiment: SPR
[2] = biological target: Recombinant MEK1 (immobilised in SPR) (human) (UniProt Q02750); experiment: SPR; remark: listed apart in the source

With “HIS-CCS (copper chaperone for superoxide dismutase) (from UniProt O14618 1-274) (natural protein)” the Kd [1] was 2.09 µM and the Kd [2] was 8 µM.
